How the values were obtained:
Assay in all cases: co-sedimentation
[1] = molecular target: 55S monosome (human (endogenous in HEK293T or 143B))
[2] = molecular target: 28S small mitoribosome subunit (mtSSU) (human (endogenous in HEK293T or 143B))
[3] = molecular target: 39S large mitoribosome subunit (mtLSU) (human (endogenous in HEK293T or 143B))

percent of total GTPBP10 that co-sediments [1] [%]	percent of total GTPBP10 that co-sediments [2] [%]	percent of total GTPBP10 that co-sediments [3] [%]	Substance
1 to 2	10	10	GTPBP10 (endogenous in 143B, isoform 2) (natural protein)
1 to 2	10	10	GTPBP10 (endogenous in HEK293T, isoform 1) (from UniProt A4D1E9-1 1-387) (natural protein)
